# Test results as given in paper PMC6555819, “Comprehensive study of nuclear receptor DNA binding provides a revised framework for understanding receptor specificity”.
# Target: RARb:RXRa (Homo sapiens, UniProt P10826;P19793 full;full)
# Assay: no ligand; PBM; 270 nM : 90 nM RXRa; PBS pH 7.4, 2% milk, 0.02% Triton X-100, 1 mM DTT, BSA, 0.4 mg/ml salmon testes DNA
# Conditions: tags: His kept;His cleaved; copies: 1;1; label: surface-attached array probe
# Method in brief: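 For binding z-scores, the reference was random background probes on custom Agilent 4×180K protein-binding microarrays. These arrays were incubated 1 h with ligand-free nuclear receptor dimers in PBS pH 7.4, 2% milk, 0.02% Triton X-100, 1 mM DTT, 0.2 mg/mL BSA and 0.4 mg/ml salmon testes DNA. Fluorescence was scanned after antibody detection of each partner (one per run) and regression-normalized.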
# Chain of RARb:RXRa (P10826 whole entry, chain 1 of 2): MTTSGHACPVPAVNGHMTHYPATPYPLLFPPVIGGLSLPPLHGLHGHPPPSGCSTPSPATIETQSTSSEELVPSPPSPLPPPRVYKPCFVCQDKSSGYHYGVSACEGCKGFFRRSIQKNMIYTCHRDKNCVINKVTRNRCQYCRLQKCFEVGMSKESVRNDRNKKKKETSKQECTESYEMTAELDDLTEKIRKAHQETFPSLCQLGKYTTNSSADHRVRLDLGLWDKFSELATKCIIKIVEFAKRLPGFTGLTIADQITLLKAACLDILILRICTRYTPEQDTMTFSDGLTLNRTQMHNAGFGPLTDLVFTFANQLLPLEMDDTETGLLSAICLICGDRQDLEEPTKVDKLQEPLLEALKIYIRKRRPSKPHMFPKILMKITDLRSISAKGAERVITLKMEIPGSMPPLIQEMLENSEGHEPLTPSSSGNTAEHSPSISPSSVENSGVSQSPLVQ
# Chain of RARb:RXRa (P19793 whole entry, chain 2 of 2): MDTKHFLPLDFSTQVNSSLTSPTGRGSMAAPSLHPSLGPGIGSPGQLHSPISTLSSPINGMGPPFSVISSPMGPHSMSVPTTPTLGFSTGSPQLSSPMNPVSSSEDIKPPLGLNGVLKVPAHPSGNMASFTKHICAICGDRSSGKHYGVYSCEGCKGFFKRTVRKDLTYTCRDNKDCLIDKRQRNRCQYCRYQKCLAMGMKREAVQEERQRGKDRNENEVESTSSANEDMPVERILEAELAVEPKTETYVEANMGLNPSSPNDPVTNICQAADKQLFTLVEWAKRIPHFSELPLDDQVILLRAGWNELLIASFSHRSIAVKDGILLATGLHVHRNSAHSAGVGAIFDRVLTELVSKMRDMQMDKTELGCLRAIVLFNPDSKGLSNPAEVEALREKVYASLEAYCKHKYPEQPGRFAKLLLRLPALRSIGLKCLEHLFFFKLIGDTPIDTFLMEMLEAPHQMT
row,Binder,binding signal
1,NRC3_wobSeed76_DR3_G19T_o1 (dsDNA) DNA 1: GCCCTACTGGGCCAAAAATGTCATTGATGCCGATAAGCGATTGACAGCGTAGAATGAAGG DNA 2: CCTTCATTCTACGCTGTCAATCGCTTATCGGCATCAATGACATTTTTGGCCCAGTAGGGC,0.29 PBM z-score against 500 random probes
2,NRC3_random_hg19_179_o1 (dsDNA) DNA 1: GCGGGAGGTGTAAGGATCCTTGTGCACTGCTTGGGAGCGATTGACAGCGTAGAATGAAGG DNA 2: CCTTCATTCTACGCTGTCAATCGCTCCCAAGCAGTGCACAAGGATCCTTACACCTCCCGC,0.23 PBM z-score against 500 random probes
3,NRC3_wobSeed28_DR1_A21C_o1 (dsDNA) DNA 1: GCCCTACTGGGCCAAAGGTCCTTGATTCCAATGCTCGCGATTGACAGCGTAGAATGAAGG DNA 2: CCTTCATTCTACGCTGTCAATCGCGAGCATTGGAATCAAGGACCTTTGGCCCAGTAGGGC,0.42 PBM z-score against 500 random probes
4,NRC3_random_hg19_265_o1 (dsDNA) DNA 1: GCCTCCCTCCTCCCATCCTCCACTTTCCCATAGGCCGCGATTGACAGCGTAGAATGAAGG DNA 2: CCTTCATTCTACGCTGTCAATCGCGGCCTATGGGAAAGTGGAGGATGGGAGGAGGGAGGC,0.13 PBM z-score against 500 random probes
5,NRC3_wobSeed66_DR2_G11A_o1 (dsDNA) DNA 1: GCAATACAGGATCACTAGGCCAGAGTAGGTACGAATGCGATTGACAGCGTAGAATGAAGG DNA 2: CCTTCATTCTACGCTGTCAATCGCATTCGTACCTACTCTGGCCTAGTGATCCTGTATTGC,0.18 PBM z-score against 500 random probes
6,NRC3_random_hg19_4_o1 (dsDNA) DNA 1: GCGTAGTTGTGTCCTCTCCTGTTCTCTCTTCTACTGGCGATTGACAGCGTAGAATGAAGG DNA 2: CCTTCATTCTACGCTGTCAATCGCCAGTAGAAGAGAGAACAGGAGAGGACACAACTACGC,0.3 PBM z-score against 500 random probes
7,NRC3_wobSeed87_DR3_T12A_o1 (dsDNA) DNA 1: GCCGAACTAGGACATCCAGGACAGTGAATACATTGAGCGATTGACAGCGTAGAATGAAGG DNA 2: CCTTCATTCTACGCTGTCAATCGCTCAATGTATTCACTGTCCTGGATGTCCTAGTTCGGC,0.14 PBM z-score against 500 random probes
8,NRC3_random_hg19_331_o1 (dsDNA) DNA 1: GCACAATCCCTACACTTTAGGAAGTCACAGTCTAGTGCGATTGACAGCGTAGAATGAAGG DNA 2: CCTTCATTCTACGCTGTCAATCGCACTAGACTGTGACTTCCTAAAGTGTAGGGATTGTGC,0.39 PBM z-score against 500 random probes
9,NRC3_wobSeed30_DR1_G17A_o1 (dsDNA) DNA 1: GCACTAGCAGGCCAAGAGTCACTCAAGATTAGTCCGGCGATTGACAGCGTAGAATGAAGG DNA 2: CCTTCATTCTACGCTGTCAATCGCCGGACTAATCTTGAGTGACTCTTGGCCTGCTAGTGC,0.46 PBM z-score against 500 random probes
10,NRC3_wobSeed136_DR5_A14C_o1 (dsDNA) DNA 1: GCTAGCCTAGGTCCTTCAGGGGCCAGTATAGAAAGCGCGATTGACAGCGTAGAATGAAGG DNA 2: CCTTCATTCTACGCTGTCAATCGCGCTTTCTATACTGGCCCCTGAAGGACCTAGGCTAGC,0.43 PBM z-score against 500 random probes
11,NRC3_random_hg19_75_o1 (dsDNA) DNA 1: GCCTGAAACTACCTTATCTCTATTCTAGGCTTAAGCGCGATTGACAGCGTAGAATGAAGG DNA 2: CCTTCATTCTACGCTGTCAATCGCGCTTAAGCCTAGAATAGAGATAAGGTAGTTTCAGGC,0.33 PBM z-score against 500 random probes
12,NRC3_wobSeed21_DR0_A14T_o1 (dsDNA) DNA 1: GCCGTCAAAGTTCTAGGTAACGTAACAGAAAGCAGCGCGATTGACAGCGTAGAATGAAGG DNA 2: CCTTCATTCTACGCTGTCAATCGCGCTGCTTTCTGTTACGTTACCTAGAACTTTGACGGC,0.4 PBM z-score against 500 random probes
13,NRC3_wobSeed100_DR4_C23A_o1 (dsDNA) DNA 1: GCCCTACTGGGCCACGAAAGGTAATTGATTCAGTGAGCGATTGACAGCGTAGAATGAAGG DNA 2: CCTTCATTCTACGCTGTCAATCGCTCACTGAATCAATTACCTTTCGTGGCCCAGTAGGGC,0.41 PBM z-score against 500 random probes
14,NRC3_wobSeed86_DR3_C13A_o1 (dsDNA) DNA 1: GCGCTGCTAGGTAAGGTTGGTCAGCTAACGGGTACGGCGATTGACAGCGTAGAATGAAGG DNA 2: CCTTCATTCTACGCTGTCAATCGCCGTACCCGTTAGCTGACCAACCTTACCTAGCAGCGC,0.16 PBM z-score against 500 random probes
15,NRC3_random_hg19_459_o1 (dsDNA) DNA 1: GCAAACACAACAGTACCTACCTTAAGCAGTTCATCAGCGATTGACAGCGTAGAATGAAGG DNA 2: CCTTCATTCTACGCTGTCAATCGCTGATGAACTGCTTAAGGTAGGTACTGTTGTGTTTGC,0.25 PBM z-score against 500 random probes
16,NRC3_wobSeed117_DR4_T11C_o1 (dsDNA) DNA 1: GCCGTCAAAGCTCAACTAAGGTAACGTAAAGCACGCGCGATTGACAGCGTAGAATGAAGG DNA 2: CCTTCATTCTACGCTGTCAATCGCGCGTGCTTTACGTTACCTTAGTTGAGCTTTGACGGC,0.06 PBM z-score against 500 random probes

row,Binder,binding signal
1,NRC3_random_hg19_202_o1 (dsDNA) DNA 1: GCTCTCTGGTACCAGTGAAGAAGACGTCCAGGTGGCGCGATTGACAGCGTAGAATGAAGG DNA 2: CCTTCATTCTACGCTGTCAATCGCGCCACCTGGACGTCTTCTTCACTGGTACCAGAGAGC,-0.14 PBM z-score against 500 random probes
2,NRC3_random_hg19_434_o1 (dsDNA) DNA 1: GCCACATGAAAGCTGACAACAGAAGCACTCCAACACGCGATTGACAGCGTAGAATGAAGG DNA 2: CCTTCATTCTACGCTGTCAATCGCGTGTTGGAGTGCTTCTGTTGTCAGCTTTCATGTGGC,-0.24 PBM z-score against 500 random probes
3,NRC3_random_hg19_291_o1 (dsDNA) DNA 1: GCGAGCAAAGGGACTTCTTAGATGGTGGTGGGCAAGGCGATTGACAGCGTAGAATGAAGG DNA 2: CCTTCATTCTACGCTGTCAATCGCCTTGCCCACCACCATCTAAGAAGTCCCTTTGCTCGC,-0.49 PBM z-score against 500 random probes
4,NRC3_wobSeed34_DR1_A9T_o1 (dsDNA) DNA 1: GCATCGAATGGTCGAAGGTGAGTATACCCACCCGAAGCGATTGACAGCGTAGAATGAAGG DNA 2: CCTTCATTCTACGCTGTCAATCGCTTCGGGTGGGTATACTCACCTTCGACCATTCGATGC,0.4 PBM z-score against 500 random probes
5,NRC3_wobSeed90_DR3_A14C_o1 (dsDNA) DNA 1: GCCATACAGGGTCCGCTAGGCCAGAGTAGGGACGGCGCGATTGACAGCGTAGAATGAAGG DNA 2: CCTTCATTCTACGCTGTCAATCGCGCCGTCCCTACTCTGGCCTAGCGGACCCTGTATGGC,0.26 PBM z-score against 500 random probes
6,NRC3_wobSeed38_DR1_A14T_o1 (dsDNA) DNA 1: GCCCTGCTAGGTCTATGGTCAGCTAAAGCAGCTCGCGCGATTGACAGCGTAGAATGAAGG DNA 2: CCTTCATTCTACGCTGTCAATCGCGCGAGCTGCTTTAGCTGACCATAGACCTAGCAGGGC,0.39 PBM z-score against 500 random probes
7,NRC3_wobSeed15_DR0_G11C_o1 (dsDNA) DNA 1: GCCGAACTAGCTCAAGGACAGTGAATCTCCGCACGCGCGATTGACAGCGTAGAATGAAGG DNA 2: CCTTCATTCTACGCTGTCAATCGCGCGTGCGGAGATTCACTGTCCTTGAGCTAGTTCGGC,0.3 PBM z-score against 500 random probes
8,NRC3_wobSeed93_DR3_G10T_o1 (dsDNA) DNA 1: GCAGTCAAATTTCATCTAGGTAACGTAAGATATGCTGCGATTGACAGCGTAGAATGAAGG DNA 2: CCTTCATTCTACGCTGTCAATCGCAGCATATCTTACGTTACCTAGATGAAATTTGACTGC,0.23 PBM z-score against 500 random probes
9,NRC3_wobSeed16_DR0_C13G_o1 (dsDNA) DNA 1: GCCAGCCTAGGTGAGGGCCAGTATAGGAGGAACGTTGCGATTGACAGCGTAGAATGAAGG DNA 2: CCTTCATTCTACGCTGTCAATCGCAACGTTCCTCCTATACTGGCCCTCACCTAGGCTGGC,0.33 PBM z-score against 500 random probes
10,NRC3_random_hg19_268_o1 (dsDNA) DNA 1: GCTGTTCTTTGGCAGTCTAGAGAATCAGAAGAGCAAGCGATTGACAGCGTAGAATGAAGG DNA 2: CCTTCATTCTACGCTGTCAATCGCTTGCTCTTCTGATTCTCTAGACTGCCAAAGAACAGC,-1.08 PBM z-score against 500 random probes
11,NRC3_wobSeed40_DR1_T12C_o1 (dsDNA) DNA 1: GCTAGCCTAGGCCATGGGCCAGTATACCACGCGAACGCGATTGACAGCGTAGAATGAAGG DNA 2: CCTTCATTCTACGCTGTCAATCGCGTTCGCGTGGTATACTGGCCCATGGCCTAGGCTAGC,0.19 PBM z-score against 500 random probes
12,NRC3_wobSeed88_DR3_T12A_o1 (dsDNA) DNA 1: GCTAGCCTAGGACATGCGGGCCAGTATAGTGTCGGCGCGATTGACAGCGTAGAATGAAGG DNA 2: CCTTCATTCTACGCTGTCAATCGCGCCGACACTATACTGGCCCGCATGTCCTAGGCTAGC,-0.15 PBM z-score against 500 random probes
13,NRC3_random_hg19_357_o1 (dsDNA) DNA 1: GCAACAGATTTCATTGAGGTGATCTACTTCGTTTCTGCGATTGACAGCGTAGAATGAAGG DNA 2: CCTTCATTCTACGCTGTCAATCGCAGAAACGAAGTAGATCACCTCAATGAAATCTGTTGC,-0.12 PBM z-score against 500 random probes
14,NRC3_wobSeed138_DR5_G10A_o1 (dsDNA) DNA 1: GCGATACAGAGTCAGCTAGAGGCCAGAGTATGGAAAGCGATTGACAGCGTAGAATGAAGG DNA 2: CCTTCATTCTACGCTGTCAATCGCTTTCCATACTCTGGCCTCTAGCTGACTCTGTATCGC,0.27 PBM z-score against 500 random probes
15,NRC3_random_hg19_283_o1 (dsDNA) DNA 1: GCTAGCTTACCTGGATCCACTTGGCCACTAGATTTGGCGATTGACAGCGTAGAATGAAGG DNA 2: CCTTCATTCTACGCTGTCAATCGCCAAATCTAGTGGCCAAGTGGATCCAGGTAAGCTAGC,-0.42 PBM z-score against 500 random probes
16,NRC3_random_hg19_324_o1 (dsDNA) DNA 1: GCCAGTGATGCACACCTGTAACCCTAGCACTTTGGGGCGATTGACAGCGTAGAATGAAGG DNA 2: CCTTCATTCTACGCTGTCAATCGCCCCAAAGTGCTAGGGTTACAGGTGTGCATCACTGGC,0.04 PBM z-score against 500 random probes
